The target in this experiment is FGFR-1c expressed on BaF3 cells. Briefly: cell-based or functional assay.

In patent US20180265558A1 one finds mitogenic potency on BaF3 cells expressing FGFR-1c, relative to wild-type FGF-1 (fold against wild-type FGF-1) data, which are given here for 1 substance.

In turn, “modified FGF-1 (S116R mutant protein) (from UniProt P05230 16-155) (ligand)” had a mitogenic potency on BaF3 cells expressing FGFR-1c, relative to wild-type FGF-1 (fold against wild-type FGF-1) of 10.
